Source: patent US20260337282 (published 2026)
Where two headings read alike, the source gives them in different places.

T1: human CX3CR1 (human)
T1 chain: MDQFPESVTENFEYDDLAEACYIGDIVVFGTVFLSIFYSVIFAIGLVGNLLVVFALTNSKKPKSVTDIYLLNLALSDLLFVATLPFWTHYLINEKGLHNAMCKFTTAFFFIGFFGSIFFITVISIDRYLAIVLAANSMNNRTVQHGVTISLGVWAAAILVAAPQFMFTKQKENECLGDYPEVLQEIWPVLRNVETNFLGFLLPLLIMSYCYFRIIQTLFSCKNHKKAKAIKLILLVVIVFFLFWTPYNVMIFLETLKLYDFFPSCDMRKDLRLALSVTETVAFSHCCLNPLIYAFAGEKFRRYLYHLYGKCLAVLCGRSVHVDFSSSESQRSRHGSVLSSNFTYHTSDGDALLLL

T2: human CCR4 (human)
T2 chain: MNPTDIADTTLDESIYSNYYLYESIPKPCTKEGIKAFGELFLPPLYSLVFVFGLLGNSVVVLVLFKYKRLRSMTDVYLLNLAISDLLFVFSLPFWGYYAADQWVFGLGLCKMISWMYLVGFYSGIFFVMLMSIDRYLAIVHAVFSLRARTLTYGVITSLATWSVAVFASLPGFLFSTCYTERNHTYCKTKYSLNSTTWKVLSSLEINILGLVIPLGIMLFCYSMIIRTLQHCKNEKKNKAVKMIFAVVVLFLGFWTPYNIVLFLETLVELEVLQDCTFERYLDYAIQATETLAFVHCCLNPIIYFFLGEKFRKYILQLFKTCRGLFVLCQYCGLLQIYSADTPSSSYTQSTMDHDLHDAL

T3: mouse CCR8 (mouse)
T3 chain: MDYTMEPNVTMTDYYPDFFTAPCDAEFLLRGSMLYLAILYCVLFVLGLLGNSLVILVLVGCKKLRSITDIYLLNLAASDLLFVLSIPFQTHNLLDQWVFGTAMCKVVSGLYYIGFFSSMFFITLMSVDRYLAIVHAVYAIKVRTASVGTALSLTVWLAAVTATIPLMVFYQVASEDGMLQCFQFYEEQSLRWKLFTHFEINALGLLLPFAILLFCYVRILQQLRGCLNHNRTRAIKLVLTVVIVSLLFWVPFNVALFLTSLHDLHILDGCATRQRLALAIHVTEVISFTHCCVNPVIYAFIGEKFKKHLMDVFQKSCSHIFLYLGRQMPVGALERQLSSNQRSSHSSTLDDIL

T4: cynomolgus CCR8 (cynomolgus)
T4 chain: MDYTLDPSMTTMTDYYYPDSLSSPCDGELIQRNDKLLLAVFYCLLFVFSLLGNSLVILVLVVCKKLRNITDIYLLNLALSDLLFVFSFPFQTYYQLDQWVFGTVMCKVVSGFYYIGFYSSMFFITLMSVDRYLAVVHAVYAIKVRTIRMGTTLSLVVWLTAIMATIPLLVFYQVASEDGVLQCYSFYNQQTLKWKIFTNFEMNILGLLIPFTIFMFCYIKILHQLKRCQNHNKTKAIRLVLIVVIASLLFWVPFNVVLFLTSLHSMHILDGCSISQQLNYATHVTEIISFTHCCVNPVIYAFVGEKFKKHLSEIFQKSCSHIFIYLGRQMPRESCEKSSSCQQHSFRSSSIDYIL

T5: human CCR2 (human)
T5 chain: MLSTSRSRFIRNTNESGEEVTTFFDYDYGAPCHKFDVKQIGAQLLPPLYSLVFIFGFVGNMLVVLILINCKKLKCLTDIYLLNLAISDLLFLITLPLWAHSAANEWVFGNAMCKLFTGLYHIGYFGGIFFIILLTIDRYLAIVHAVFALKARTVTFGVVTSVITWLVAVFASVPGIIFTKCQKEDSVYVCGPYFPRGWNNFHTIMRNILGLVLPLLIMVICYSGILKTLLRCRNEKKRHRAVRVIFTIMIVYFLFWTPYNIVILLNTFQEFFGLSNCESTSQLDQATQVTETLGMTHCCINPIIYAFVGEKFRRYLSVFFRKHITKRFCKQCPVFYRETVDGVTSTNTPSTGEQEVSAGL


Experiments:
Test in all cases: FACS
human CX3CR1 = target: T1, human CX3CR1
human CCR8 [1] = target: human CCR8 (human)
Sequence of human CCR8 (human) (chain, as listed by the source): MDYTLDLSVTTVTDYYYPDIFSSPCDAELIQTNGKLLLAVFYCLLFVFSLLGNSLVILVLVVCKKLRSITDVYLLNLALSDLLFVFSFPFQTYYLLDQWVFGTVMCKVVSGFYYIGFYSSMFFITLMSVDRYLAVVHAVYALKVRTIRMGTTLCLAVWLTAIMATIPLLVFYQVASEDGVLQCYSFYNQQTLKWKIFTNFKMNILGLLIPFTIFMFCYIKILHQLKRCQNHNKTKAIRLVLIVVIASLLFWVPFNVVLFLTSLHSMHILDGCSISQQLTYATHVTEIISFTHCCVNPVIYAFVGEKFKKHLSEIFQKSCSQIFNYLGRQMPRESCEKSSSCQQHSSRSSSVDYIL

human CCR4 = target: T2, human CCR4
human CCR5 = human CCR5 (human)
Sequence of human CCR5 (human) (O14692 whole entry): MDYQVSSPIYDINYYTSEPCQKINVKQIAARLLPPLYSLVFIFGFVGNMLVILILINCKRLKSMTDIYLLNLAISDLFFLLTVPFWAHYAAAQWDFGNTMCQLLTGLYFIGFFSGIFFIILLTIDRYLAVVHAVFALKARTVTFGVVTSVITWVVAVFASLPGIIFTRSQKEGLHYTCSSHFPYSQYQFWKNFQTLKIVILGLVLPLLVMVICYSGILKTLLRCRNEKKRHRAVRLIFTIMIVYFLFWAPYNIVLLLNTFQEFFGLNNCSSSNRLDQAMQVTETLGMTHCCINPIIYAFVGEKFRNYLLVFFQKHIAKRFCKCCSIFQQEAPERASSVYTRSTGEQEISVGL

human CCR8 [2] = target: human CCR8 (human); remark: listed apart in the source
mouse CCR8 [3] = target: T3, mouse CCR8
cynomolgus CCR8 = target: T4, cynomolgus CCR8
mouse CCR8 [4] = target: T3, mouse CCR8
human CCR2 = target: T5, human CCR2
human CCR8 [5] = target: human CCR8 (human); remark: listed apart in the source
human CCR8 [6] = target: human CCR8 (human); remark: listed apart in the source

Row | Binder | binding result (human CX3CR1) | EC50 (human CCR8 [1]) [µg/mL] | binding result (human CCR4) | binding result (human CCR5) | EC50 (human CCR8 [2]) [µg/mL] | EC50 (mouse CCR8 [3]) [µg/mL] | EC50 (cynomolgus CCR8) [µg/mL] | EC50 (mouse CCR8 [4]) [µg/mL] | binding result (human CCR2) | EC50 (human CCR8 [5]) [µg/mL] | binding result (human CCR8 [6])
1 | Leronlimab analog (antibody, V domains shown) VH: EVQLVESGGGLVKPGGSLRLSCAASGYTFSNYWIGWVRQAPGKGLEWIGDIYPGGNYIRNNEKFKDKTTLSADTSKNTAYLQMNSLKTEDTAVYYCGSSFGSNYVFAWFTYWGQGTLVTVSS VL: DIVMTQSPLSLPVTPGEPASISCRSSQRLLSSYGHTYLHWYLQKPGQSPQLLIYEVSNRFSGVPDRFSGSGSGTDFTLKISRVEAEDVGVYYCSQSTHVPLTFGQGTKVEIK | no binding |  | no binding |  |  |  |  |  | no binding |  | no binding
2 | Mogamulizumab analog-SI (antibody, V domains shown) VH: EVQLVESGGDLVQPGRSLRLSCAASGFIFSNYGMSWVRQAPGKGLEWVATISSASTYSYYPDSVKGRFTISRDNAKNSLYLQMNSLRVEDTALYYCGRHSDGNFAFGYWGQGTLVTVSS VL: DVLMTQSPLSLPVTPGEPASISCRSSRNIVHINGDTYLEWYLQKPGQSPQLLIYKVSNRFSGVPDRFSGSGSGTDFTLKISRVEAEDVGVYYCFQGSLLPWTFGQGTKVEIK | no binding |  |  | no binding |  |  |  |  | no binding |  | no binding

The next lines start with the values.

Row | binding result (human CX3CR1) | EC50 (human CCR8 [1]) [µg/mL] | binding result (human CCR4) | binding result (human CCR5) | EC50 (human CCR8 [2]) [µg/mL] | EC50 (mouse CCR8 [3]) [µg/mL] | EC50 (cynomolgus CCR8) [µg/mL] | EC50 (mouse CCR8 [4]) [µg/mL] | binding result (human CCR2) | EC50 (human CCR8 [5]) [µg/mL] | binding result (human CCR8 [6]) | Binder
3 | no binding | 0.104 | no binding | no binding | 0.104 | 0.127 | 0.71 | 0.127 | no binding | 0.0814 |  | 11F8 (antibody, V domains shown) VH: QVQLVESGGGVVQPGRSLRLSCAASGFTFSTYVMHWVRQAPGKGLEWVAVISYDGNNKYYADSVKGRFIISRDNSKNTLFLQMNSLRGEDTAVYYCARGRSYVNYYGLDVWGQGTTVTVSS VL: DIVMTQTPLSLSVTPGQPASISCKSSQSLLYSDGKTYLYWYLQKPGQPPHLLIYEVSNRFSGVPKRFSGSGSGTDFTLKISRVEAEDVGVYYCMQSVKIPLTFGGGTKVEIK
4 | no binding | 0.194 | no binding | no binding | 0.194 | 0.177 | 0.103 | 0.177 | no binding | 0.21 |  | 11B12 (antibody, V domains shown) VH: QVQLVESGGGVVQPGRSLRLSCAASGFSFSSYVMHWVRQAPGKGLEWVAVISYDGSDKYYADSVKGRFTISRDNSKNTLFLQMNSLRPEDTAVYYCARGRGYRYGQSYYYGMDVWGQGTTVTVSS VL: DIVMTQTPLSLSVTPGQPASISCKSSQSLLYSDGKTYLYWYLQKPGQPPQILIFEVSNRFSGVPDRFSGSGSGTDFTLKISRVEAEDVGVYYCMQSIKLPLTFGGGTKVEIK
5 | no binding |  | no binding | no binding |  |  |  |  |  |  | no binding | Plozalizuzumab analog (antibody, V domains shown) VH: EVQLVESGGGLVKPGGSLRLSCAASGFTFSAYAMNWVRQAPGKGLEWVGRIRTKNNNYATYYADSVKDRFTISRDDSKNTLYLQMNSLKTEDTAVYYCTTFYGNGVWGQGTLVTVSS VL: DVVMTQSPLSLPVTLGQPASISCKSSQSLLDSDGKTFLNWFQQRPGQSPRRLIYLVSKLDSGVPDRFSGSGSGTDFTLKISRVEAEDVGVYYCWQGTHFPYTFGQGTRLEIK
